Assay results taken from US10562947B2, “Compositions and methods for preventing or treating diseases, conditions or processes characterized by aberrant fibroblast proliferation and extracellular matrix deposition” (MOERAE MATRIX, INC., priority 2011, dated 2020).

Assays:
Assay in all cases: Kinase Profiling Assay
Assay type in all cases: biochemical
Details in all cases: 100 μM peptide
[1] = target: CK1δ(h) (Homo sapiens, UniProt P48730)
Summary of the method: (§1)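 MK2 inhibitory peptides were screened for specificity across a commercial panel of 266 human kinases, and each kinase activity measurement was run in duplicate.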

[2] = target: T1, CaMKIV(h) (Homo sapiens, UniProt Q16566)
T1 sequence (Q16566 1-473): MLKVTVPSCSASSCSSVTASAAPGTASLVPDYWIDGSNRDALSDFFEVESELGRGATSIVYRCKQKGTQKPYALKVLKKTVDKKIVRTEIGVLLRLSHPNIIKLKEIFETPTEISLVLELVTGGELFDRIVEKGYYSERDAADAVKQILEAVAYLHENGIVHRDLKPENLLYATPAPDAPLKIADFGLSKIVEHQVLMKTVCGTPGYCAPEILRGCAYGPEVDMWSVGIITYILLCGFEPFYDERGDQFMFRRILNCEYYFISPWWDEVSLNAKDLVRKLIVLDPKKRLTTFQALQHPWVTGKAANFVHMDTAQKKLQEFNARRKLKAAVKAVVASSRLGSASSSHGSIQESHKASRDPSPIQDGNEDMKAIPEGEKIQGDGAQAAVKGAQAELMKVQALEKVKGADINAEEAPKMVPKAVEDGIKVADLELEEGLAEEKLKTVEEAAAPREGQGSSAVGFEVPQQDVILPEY
Summary of the method: as §1

[3] = target: EGFR(h) (Homo sapiens, UniProt P00533)
Summary of the method: as §1

[4] = target: T2, EphB3(h) (Homo sapiens, UniProt P54753)
T2 sequence (P54753 34-998): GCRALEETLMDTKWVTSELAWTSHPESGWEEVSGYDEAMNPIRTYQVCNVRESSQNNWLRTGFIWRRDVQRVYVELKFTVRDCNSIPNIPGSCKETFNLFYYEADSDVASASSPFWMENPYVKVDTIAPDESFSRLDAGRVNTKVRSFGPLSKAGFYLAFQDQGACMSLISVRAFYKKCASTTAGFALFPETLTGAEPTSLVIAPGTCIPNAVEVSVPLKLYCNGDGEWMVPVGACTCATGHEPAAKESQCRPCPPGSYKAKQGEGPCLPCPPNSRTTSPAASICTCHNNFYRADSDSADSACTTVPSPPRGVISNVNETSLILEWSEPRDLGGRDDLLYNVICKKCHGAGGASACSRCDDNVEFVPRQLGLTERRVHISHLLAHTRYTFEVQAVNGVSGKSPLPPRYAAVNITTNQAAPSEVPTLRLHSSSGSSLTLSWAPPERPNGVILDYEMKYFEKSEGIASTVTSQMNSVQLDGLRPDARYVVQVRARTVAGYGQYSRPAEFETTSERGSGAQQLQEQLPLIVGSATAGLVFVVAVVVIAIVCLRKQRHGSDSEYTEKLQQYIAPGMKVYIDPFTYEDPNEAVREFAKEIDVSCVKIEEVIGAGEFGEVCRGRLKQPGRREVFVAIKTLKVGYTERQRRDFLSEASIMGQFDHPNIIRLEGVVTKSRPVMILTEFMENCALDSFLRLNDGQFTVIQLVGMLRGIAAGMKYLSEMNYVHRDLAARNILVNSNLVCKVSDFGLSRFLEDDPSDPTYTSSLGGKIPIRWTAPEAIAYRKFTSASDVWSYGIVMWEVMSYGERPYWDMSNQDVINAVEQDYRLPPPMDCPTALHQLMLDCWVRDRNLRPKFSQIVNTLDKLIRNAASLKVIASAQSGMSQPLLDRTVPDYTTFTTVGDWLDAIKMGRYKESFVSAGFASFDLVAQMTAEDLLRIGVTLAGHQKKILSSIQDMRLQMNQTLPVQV
Summary of the method: as §1

[5] = target: Fms(Y969C)(h) (Homo sapiens, UniProt P07333, Y969C)
Summary of the method: as §1

[6] = target: MELK(h) (Homo sapiens, UniProt Q14680)
Summary of the method: as §1

[7] = target: MRCKβ(h) (Homo sapiens, UniProt Q9Y5S2)
Summary of the method: as §1

[8] = target: T3, Rse(h) (Homo sapiens, UniProt Q06418)
T3 construct: purchased Millipore (IC50 Profiler Express service)
T3 sequence (Q06418 41-890): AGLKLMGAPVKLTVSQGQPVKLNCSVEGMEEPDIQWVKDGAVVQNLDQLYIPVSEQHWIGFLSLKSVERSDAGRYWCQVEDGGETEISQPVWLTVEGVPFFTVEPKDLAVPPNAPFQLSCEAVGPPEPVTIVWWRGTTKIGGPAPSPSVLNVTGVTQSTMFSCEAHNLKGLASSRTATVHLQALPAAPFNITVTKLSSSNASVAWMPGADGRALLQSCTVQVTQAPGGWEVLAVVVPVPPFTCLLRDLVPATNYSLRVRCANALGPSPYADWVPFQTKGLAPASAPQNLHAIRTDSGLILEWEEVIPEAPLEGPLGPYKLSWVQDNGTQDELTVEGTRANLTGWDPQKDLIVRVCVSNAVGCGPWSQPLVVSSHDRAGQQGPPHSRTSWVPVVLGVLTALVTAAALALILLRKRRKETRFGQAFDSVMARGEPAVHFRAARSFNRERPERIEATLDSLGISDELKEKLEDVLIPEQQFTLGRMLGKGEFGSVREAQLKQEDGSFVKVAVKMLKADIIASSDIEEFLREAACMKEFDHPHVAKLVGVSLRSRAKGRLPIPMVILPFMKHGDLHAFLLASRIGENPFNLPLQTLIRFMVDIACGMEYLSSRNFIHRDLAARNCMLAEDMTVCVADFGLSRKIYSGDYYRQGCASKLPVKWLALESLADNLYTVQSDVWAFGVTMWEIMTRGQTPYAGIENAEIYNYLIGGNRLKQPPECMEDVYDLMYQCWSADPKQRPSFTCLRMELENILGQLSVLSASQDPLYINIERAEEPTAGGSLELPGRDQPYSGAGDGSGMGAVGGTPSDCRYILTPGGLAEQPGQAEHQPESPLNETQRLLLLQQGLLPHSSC
Summary of the method: as §1

[9] = target: FGFR3(h) (Homo sapiens, UniProt P22607)
Summary of the method: as §1

MELK(h), sequence (Q14680 whole entry): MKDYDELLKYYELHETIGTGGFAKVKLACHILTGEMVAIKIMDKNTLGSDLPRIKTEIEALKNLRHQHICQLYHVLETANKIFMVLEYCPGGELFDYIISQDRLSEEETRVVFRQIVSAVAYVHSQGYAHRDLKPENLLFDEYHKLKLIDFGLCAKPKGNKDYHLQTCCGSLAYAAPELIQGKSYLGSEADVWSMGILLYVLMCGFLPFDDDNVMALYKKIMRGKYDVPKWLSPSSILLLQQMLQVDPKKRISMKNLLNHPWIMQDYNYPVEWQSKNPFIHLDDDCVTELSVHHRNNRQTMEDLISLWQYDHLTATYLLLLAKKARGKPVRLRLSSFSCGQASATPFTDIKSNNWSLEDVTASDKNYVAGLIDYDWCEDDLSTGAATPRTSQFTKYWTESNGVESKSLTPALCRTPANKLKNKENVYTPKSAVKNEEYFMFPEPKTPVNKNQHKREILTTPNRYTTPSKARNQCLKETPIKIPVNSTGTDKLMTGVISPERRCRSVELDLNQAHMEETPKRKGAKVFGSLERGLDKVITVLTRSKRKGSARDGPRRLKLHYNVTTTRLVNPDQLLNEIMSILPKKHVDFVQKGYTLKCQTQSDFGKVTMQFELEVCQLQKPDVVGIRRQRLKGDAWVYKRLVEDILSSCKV
CK1δ(h), sequence (P48730 whole entry): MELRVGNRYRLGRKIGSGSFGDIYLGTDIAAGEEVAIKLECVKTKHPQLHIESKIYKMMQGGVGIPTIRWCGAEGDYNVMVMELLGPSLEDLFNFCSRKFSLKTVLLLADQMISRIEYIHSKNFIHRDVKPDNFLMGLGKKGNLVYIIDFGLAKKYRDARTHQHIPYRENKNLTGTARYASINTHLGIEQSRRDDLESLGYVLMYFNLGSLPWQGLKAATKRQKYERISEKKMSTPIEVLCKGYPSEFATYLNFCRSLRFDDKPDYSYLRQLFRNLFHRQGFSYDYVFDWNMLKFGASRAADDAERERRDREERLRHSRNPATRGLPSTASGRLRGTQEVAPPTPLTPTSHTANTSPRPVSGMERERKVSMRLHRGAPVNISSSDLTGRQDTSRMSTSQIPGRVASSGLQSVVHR
FGFR3(h), sequence (P22607 23-806): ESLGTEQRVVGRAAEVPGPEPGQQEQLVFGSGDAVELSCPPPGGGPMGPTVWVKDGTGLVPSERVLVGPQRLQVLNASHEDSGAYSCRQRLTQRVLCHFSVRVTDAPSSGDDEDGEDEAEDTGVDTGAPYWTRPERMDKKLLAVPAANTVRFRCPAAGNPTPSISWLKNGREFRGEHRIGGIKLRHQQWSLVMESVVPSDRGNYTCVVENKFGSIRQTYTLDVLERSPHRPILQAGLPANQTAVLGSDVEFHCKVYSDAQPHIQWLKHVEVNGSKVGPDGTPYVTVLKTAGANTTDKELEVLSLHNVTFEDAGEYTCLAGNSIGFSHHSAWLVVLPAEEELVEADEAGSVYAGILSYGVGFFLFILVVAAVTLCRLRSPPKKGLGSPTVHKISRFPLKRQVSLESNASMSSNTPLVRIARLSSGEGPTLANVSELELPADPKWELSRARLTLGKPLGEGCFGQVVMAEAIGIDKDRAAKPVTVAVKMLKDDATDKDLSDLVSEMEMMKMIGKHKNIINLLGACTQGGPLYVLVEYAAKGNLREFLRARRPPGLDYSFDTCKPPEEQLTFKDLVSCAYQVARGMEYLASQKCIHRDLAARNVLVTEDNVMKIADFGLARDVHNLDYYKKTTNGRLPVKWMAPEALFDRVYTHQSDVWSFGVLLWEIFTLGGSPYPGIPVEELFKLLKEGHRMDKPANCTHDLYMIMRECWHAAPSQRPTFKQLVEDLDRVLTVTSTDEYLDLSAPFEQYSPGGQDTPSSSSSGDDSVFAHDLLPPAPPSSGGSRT
MRCKβ(h), sequence (Q9Y5S2 whole entry): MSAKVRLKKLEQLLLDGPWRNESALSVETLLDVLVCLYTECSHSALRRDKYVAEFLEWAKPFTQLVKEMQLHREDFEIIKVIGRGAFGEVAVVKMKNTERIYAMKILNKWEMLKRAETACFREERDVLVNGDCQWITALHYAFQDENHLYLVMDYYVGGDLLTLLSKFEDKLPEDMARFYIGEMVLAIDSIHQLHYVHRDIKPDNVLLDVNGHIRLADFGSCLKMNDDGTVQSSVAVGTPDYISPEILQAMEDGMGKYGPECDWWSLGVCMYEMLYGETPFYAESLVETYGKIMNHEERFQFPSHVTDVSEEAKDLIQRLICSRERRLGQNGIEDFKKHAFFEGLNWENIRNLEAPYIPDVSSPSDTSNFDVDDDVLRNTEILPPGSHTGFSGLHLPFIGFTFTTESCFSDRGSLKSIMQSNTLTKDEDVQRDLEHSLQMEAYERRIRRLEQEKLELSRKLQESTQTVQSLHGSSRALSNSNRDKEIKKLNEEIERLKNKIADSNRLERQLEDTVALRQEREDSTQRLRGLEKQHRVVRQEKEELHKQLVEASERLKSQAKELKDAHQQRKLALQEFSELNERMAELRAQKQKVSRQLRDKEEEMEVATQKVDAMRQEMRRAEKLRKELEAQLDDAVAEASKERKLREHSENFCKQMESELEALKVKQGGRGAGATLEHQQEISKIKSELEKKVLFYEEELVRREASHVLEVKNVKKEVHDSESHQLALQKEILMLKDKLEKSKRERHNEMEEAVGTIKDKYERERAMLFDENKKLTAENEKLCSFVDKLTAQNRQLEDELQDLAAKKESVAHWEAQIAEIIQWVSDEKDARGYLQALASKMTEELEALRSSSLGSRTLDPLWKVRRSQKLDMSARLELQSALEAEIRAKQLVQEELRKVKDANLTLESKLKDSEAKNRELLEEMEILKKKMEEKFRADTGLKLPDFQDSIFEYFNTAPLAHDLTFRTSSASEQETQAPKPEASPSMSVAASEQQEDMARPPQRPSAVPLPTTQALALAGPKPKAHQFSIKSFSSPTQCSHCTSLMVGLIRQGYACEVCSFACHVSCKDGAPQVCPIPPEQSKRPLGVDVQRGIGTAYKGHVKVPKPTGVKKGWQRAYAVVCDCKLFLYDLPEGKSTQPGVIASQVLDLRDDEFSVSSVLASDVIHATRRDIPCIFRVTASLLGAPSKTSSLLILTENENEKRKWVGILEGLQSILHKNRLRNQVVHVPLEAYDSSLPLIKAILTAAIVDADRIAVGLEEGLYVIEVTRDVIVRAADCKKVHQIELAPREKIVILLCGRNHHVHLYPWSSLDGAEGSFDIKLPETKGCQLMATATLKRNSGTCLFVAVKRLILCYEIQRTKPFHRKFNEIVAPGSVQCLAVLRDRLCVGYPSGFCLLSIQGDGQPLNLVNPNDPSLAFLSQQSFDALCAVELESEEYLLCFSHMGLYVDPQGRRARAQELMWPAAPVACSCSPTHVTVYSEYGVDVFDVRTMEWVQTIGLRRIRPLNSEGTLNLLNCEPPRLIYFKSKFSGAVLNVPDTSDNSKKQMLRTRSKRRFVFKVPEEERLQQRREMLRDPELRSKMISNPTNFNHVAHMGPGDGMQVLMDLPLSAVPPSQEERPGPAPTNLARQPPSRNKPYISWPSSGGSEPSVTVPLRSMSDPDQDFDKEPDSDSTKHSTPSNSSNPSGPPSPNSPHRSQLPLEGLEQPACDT

Sequence	CK1δ(h) % activity [1] [%]	CaMKIV(h) % activity [2] [%]	EGFR(h) % activity [3] [%]	EphB3(h) % activity [4] [%]	Fms(Y969C)(h) % activity [5] [%]	MELK(h) % activity [6] [%]	MRCKβ(h) % activity [7] [%]	Rse(h) % activity [8] [%]	FGFR3(h) % activity [9] [%]
FAKLAARLYRKALARQLGVAA [MMI-0300]	92	17	21	62	72	16	83	88	
HRRIKAWLKKIKALARQLGVAA (Mammalian) [MMI-0500]	78	−1	−1	79		0	−10	63	10
KAFAKLAARLYRKALARQLGVAA [MMI-0400]	93	18	16	47	91	17	71	89	0
YARAAARQARAKALNRQLGVA (Mammalian) [MMI-0200]	92	71	83	128	88	59		88	208
